Data taken from paper PMC9258132, “Multi-omics profiling identifies a deregulated FUS-MAP1B axis in ALS/FTD–associated UBQLN2 mutants”.

Target: MBP-FUS-His6 WT (UniProt P35637 1-526)
Assay: EMSA; 5 mM MgCl2, 0.1 mg/ml yeast tRNA; 5 nM RNA, 0-10 uM protein; 20 mM NaPO4 pH 8, 150 mM NaCl, 5% glycerol, 1 mM DTT, 5 mM MgCl2, 0.5 mg/ml BSA, 0.1 mg/ml yeast tRNA, 1 U/ul RNase inhibitor, 20 min RT; 6% native PAGE in 0.5x TBE
Details: protein: recombinant; tags: N-terminal MBP, C-terminal His6; hairpin with 3' single-stranded tail

Chain of MBP-FUS-His6 WT (P35637 whole entry): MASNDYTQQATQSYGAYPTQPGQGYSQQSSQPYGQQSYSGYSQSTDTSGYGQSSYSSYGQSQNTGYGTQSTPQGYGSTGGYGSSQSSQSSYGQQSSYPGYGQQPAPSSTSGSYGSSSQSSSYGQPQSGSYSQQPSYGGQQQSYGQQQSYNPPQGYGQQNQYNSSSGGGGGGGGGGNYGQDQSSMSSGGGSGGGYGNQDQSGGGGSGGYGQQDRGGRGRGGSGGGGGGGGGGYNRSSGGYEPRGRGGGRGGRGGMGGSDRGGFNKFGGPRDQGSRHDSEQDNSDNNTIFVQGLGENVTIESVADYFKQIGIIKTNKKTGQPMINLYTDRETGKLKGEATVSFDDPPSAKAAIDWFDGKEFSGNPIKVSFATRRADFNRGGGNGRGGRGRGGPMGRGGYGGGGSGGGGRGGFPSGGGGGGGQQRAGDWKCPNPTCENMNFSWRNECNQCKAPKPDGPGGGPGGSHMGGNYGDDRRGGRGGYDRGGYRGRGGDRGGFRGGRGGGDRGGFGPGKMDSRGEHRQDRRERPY

B1: SON pre-mRNA stem loop with downstream GGU motif (structured_RNA)
RNA: GGAUCUUUAACUACUCAAGAUACUGAACAUGACAUGGUA
binding result: binds
